According to IntAct's records for PubMed 30559186:

Target: bi1_human TMBIM6 (UniProt P55061)
Sequence (P55061 whole entry): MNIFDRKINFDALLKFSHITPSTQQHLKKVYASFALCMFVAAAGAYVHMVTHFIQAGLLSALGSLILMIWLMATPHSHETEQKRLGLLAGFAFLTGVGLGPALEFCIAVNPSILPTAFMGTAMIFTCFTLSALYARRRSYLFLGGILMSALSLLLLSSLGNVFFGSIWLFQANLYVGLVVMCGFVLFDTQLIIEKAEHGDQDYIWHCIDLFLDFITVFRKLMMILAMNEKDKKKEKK

Row | Substance | effect of a mutation on the interaction
1 | Presenilin-1 (Homo sapiens) (from UniProt P49768) I143V | with no effect
2 | Presenilin-1 (Homo sapiens) (from UniProt P49768) I439V | with no effect
3 | Presenilin-1 (Homo sapiens) (from UniProt P49768) M233L | with no effect
4 | Presenilin-1 (Homo sapiens) (from UniProt P49768) P284S | with no effect
5 | Presenilin-1 (Homo sapiens) (from UniProt P49768) V272A | with no effect

Continued, values first:

Row | effect of a mutation on the interaction | Substance
6 | with no effect | Presenilin-1 (Homo sapiens) (from UniProt P49768) L381V
7 | with no effect | Presenilin-1 (Homo sapiens) (from UniProt P49768) S169P
